Like-named read-outs stand apart in the source and are kept apart here.

Assay in all cases: EMSA
Series [1] concerns the target T1, Orf1 (HTH_42 DNA glycosylase) (Streptomyces sahachiroi ATCC33158, UniProt B4XYC8 1-371).
T1 sequence: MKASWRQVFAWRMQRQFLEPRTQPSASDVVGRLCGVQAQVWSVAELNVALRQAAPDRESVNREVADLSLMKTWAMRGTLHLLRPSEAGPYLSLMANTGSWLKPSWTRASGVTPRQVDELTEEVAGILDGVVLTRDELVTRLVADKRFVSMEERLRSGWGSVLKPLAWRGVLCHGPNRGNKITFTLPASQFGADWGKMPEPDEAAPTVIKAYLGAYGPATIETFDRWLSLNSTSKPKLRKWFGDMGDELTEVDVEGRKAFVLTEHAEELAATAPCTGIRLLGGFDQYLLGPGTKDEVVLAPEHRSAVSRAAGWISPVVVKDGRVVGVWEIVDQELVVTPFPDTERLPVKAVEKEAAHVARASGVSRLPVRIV

For series [2], the target named is T1, Orf1 (HTH_42 DNA glycosylase). This is another data set of the same source.
The target is the same in series [3]. This is another data set of the same source.

B1: GCT ODN (dsDNA)
DNA 1: TATTATTATGCTATTATTATT
DNA 2: AATAATAATAGCATAATAATA
With B1, the binding result in series [1] was “binds”.

B2: GAT ODN (dsDNA)
DNA 1: TATTATTATGATATTATTATT
DNA 2: AATAATAATATCATAATAATA
Turning to B2, in series [1], the binding result is on record as “binds”.

B3: GCC ODN azinomycin B-adducted (dsDNA)
DNA 1: TATTATTATGCCATTATTATT
DNA 2: AATAATAATGGCATAATAATA
modifications: azinomycin B interstrand cross-link G-G at the GCC site (mixture with monoadduct possible)
On to B3, for which the binding result in series [2] is reported as “binds”.

B4: AAT ODN (dsDNA)
DNA 1: TATTATTATATTATTATTATT
DNA 2: AATAATAATAATATAATAATA
Turning to B4, the binding result in series [1] is given as “binds”.

B5: GCC ODN (dsDNA)
DNA 1: TATTATTATGCCATTATTATT
DNA 2: AATAATAATGGCATAATAATA
B5: in series [3], the binding result is reported as “binds”.

Values taken from article PMC4705692.
